Reference: US20040161746A1 (published 2004)

B1: myosin binding subunit 85 partial sequence, Prey-No. 3 (590 aa to 782 aa) (other, human, UniProt Q9BZL4 590-782, looked up)
chain: PSRRPRVPGVENSDSPAQRAEAPDGQGPGPQAAREHRKVGKEWRGPAEGEEAEPADRSQESSTLEGGPSARRQRWQRDLNPEPEPESEEPDGGFRTLYAELRRENERLREALTETTLRLAQLKVELERATQRQERFAERPALLELERFERRALERKAAELEEELKALSDLRADNQRLKDENAALIRVISKLSK
notes: range 590-782; Prey clone from a Human Brain cDNA library in the yeast two-hybrid system
B2: myosin binding subunit 85 partial sequence, Prey-No. 4 (590 aa to 782 aa) (other, human, UniProt Q9BZL4 590-782, looked up)
chain: B1 chain
notes: range 590-782; Prey clone from a Human Brain cDNA library; It has the same amino acid range as Prey-No. 3 and differs only in 3'-UTR length; The prey fusion domain is not described
B3: myosin binding subunit 85 partial sequence, Prey-No. 11 (656 aa to 782 aa) (other, human, UniProt Q9BZL4 656-782, looked up)
chain: GPSARRQRWQRDLNPEPEPESEEPDGGFRTLYAELRRENERLREALTETTLRLAQLKVELERATQRQERFAERPALLELERFERRALERKAAELEEELKALSDLRADNQRLKDENAALIRVISKLSK
notes: range 656-782; Prey clone from a Human Brain cDNA library; The prey fusion domain is not described

target: T1, B1153 protein (human, UniProt Q96JG6 1-964); assay: yeast two-hybrid (PROQUEST, GAL4), B1153 full-length ORF as bait, Human Brain cDNA library prey
T1 construct: also called indicator protein
T1 sequence: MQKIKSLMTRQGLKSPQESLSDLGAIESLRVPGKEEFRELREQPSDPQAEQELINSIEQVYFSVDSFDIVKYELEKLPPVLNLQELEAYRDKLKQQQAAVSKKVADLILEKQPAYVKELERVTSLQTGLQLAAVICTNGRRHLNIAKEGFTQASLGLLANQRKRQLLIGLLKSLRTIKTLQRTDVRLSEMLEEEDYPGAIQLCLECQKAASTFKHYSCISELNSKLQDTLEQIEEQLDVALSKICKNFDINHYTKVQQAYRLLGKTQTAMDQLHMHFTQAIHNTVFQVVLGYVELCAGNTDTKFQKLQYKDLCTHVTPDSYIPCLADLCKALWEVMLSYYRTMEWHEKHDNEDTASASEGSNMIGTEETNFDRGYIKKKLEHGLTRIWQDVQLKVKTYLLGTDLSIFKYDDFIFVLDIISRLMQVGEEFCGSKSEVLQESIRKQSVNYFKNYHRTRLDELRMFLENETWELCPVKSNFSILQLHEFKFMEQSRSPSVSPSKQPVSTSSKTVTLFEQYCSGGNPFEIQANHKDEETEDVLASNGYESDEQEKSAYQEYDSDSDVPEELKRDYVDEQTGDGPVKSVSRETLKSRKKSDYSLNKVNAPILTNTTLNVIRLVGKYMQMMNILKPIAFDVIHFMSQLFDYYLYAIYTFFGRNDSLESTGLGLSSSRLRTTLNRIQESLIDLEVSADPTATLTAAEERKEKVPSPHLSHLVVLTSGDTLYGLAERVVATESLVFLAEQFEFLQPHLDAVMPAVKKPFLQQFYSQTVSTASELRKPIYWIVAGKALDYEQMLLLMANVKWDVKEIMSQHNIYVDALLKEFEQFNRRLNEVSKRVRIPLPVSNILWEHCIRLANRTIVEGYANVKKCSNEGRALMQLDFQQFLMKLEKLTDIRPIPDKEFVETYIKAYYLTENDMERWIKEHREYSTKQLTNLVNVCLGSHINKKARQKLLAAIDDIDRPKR
Procedure: By the PROQUEST™ TWO-Hybrid system (Invitrogen) utilizing the in vivo gene expression system of GAL4 series yeast, a search for a protein that interacts with the protein of this invention was carried out. Screening for a protein that interacts with B1153 was conducted for the Human Brain cDNA library with the full-length ORF region (86 bp to 2977 bp) of the B1153 gene as a bait. In this case, protocol according to the manual attached to the system was used.

Binder	binding result
B1	binds
B2	binds
B3	binds
